The values that follow come from patent publication US20160237160A1 (Bayer, published 2016).

Assay [1] has as its target T1, TPP-2202 (TWEAKR-ECD-28-80-hIgGFc-His) (human).
T1 construct: dimeric; also called TWEAKR-Fc fusion protein; full ectodomain 28-80
Description: ELISA, TPP-2202 coated at 1 µg/ml, biotinylated IgG at 0.08 µg/ml (open bar) and 0.3 µg/ml (filled bar), Streptavidin-HRP, Amplex Red.
Description: (§1) Detection was done with Streptavidin-HRP and Amplex-Red substrate.
(§2) To analyze for binding, 1 μg/ml of the respective dimeric TWEAKR-Fc construct were coated and, 0.3 μg/ml and 0.08 μg/ml of biotinylated IgG were used as soluble binding partner. Detection was done with Streptavidin-HRP and Amplex-Red substrate.

Assay [2] addresses T2, TWEAKR (TNFRSF12A, FN14), human, on tumor cell lines (human, UniProt Q9NP84 28-129). In words: cell-based or functional assay.
Assay [3] addresses T3, TPP-1984 (hTNFRSF12Aaa28-68-CT-His) (human).
T3 construct: monomeric ectodomain with HIS6 tag; also called TWEAKR(28-68)-HIS; C-terminally truncated TWEAKR ectodomain
T3 chain: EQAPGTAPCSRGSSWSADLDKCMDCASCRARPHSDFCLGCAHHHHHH
Description: ELISA, TPP-1984 coated at 1 µg/ml, biotinylated IgG at 0.08 µg/ml (open bar) and 0.3 µg/ml (filled bar), Streptavidin-HRP, Amplex Red.
Description: as §1, §2

Assay [4] addresses T2, TWEAKR (TNFRSF12A, FN14), human, on …. Description: cell-based or functional assay. The source holds these as a separate data set.
Assay [5] concerns the target T4, TPP-2203 (TWEAKR-ECD-34-68-hIgGFc-His) (human).
T4 construct: dimeric; also called TWEAKR(34-68)-Fc fusion protein; truncated ectodomain 34-68
In words: ELISA, TPP-2203 coated at 1 µg/ml, biotinylated IgG at 0.08 µg/ml (open bar) and 0.3 µg/ml (filled bar), Streptavidin-HRP, Amplex Red.
Description: as §1, §2

Assay [6] addresses T5, TPP-2305 (hTNFRSF12Aaa28-80) (Human, UniProt Q9NP84 28-80).
T5 construct: monomeric extracellular domain, bought; also called purified recombinant human TWEAKR protein; soluble monomeric TWEAKR
In words: SPR (Biacore T100), IgG captured, TPP-2305 injected, 1:1 model.

Assay [7] has as its target TPP-1988 (hTNFRSF12Aaa28-80-M50A-hIgG1-Fc) (human). In words: ELISA, TWEAKR-Fc coated 62 ng/ml, biotin-IgG titrated; + means IC50 1 to 150 pM.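 Also: biotinylated IgG binding to immobilized TWEAKR-Fc muteins, detected with Streptavidin-HRP and Amplex Red, IC50 derived from fitted dose-response curves of twofold serial dilutions.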
Description: (§3) To collect dose-response data, the different TWEAKR-Fc muteins were coated with a low concentration (62 ng/ml) in a 384-well Maxisorb ELISA plate and a serial 2fold dilution of biotinylated IgG starting with a concentration of 100 nM was used as soluble binding partner. Detection was done with Streptavidin-HRP and Amplex Red.
(§4) The dose-response data were fitted and IC50s determined.
For assay [8], the target named is T6, TPP-599 (HUMAN-TNFRSF12Aaa28-80-hIgG1-Fc) (human).
T6 construct: dimeric; also called human TWEAKR Fc; TWEAKR-Fc
Described as above.
Description: as §3, §4

For assay [9], the target named is TPP-1989 (hTNFRSF12Aaa28-80-H60K-hIgG1-Fc) (human). The assay is described as above.
Description: as §3, §4
For assay [10], the target named is TPP-1990 (hTNFRSF12Aaa28-80-L65Q-hIgG1-Fc) (human). Described as above.
Description: as §3, §4
Assay [11] deals with TPP-1986 (hTNFRSF12Aaa28-80-T33Q-hIgG1-Fc) (human). Described as above.
Description: as §3, §4
Assay [12] concerns the target TPP-1987 (hTNFRSF12Aaa28-80-S40R-hIgG1-Fc) (human). The assay is described as above.
Description: as §3, §4
For assay [13], the target named is T7, TPP-1777 (DOG-TNFRSF12Aaa28-80-hIgG1-Fc) (dog).
T7 construct: bivalent antigen; also called dog TWEAKR Fc
In words: SPR, TWEAKR-Fc immobilized, IgG injected, bivalent analyte model (avidity mode).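 Also: kd derived as the ratio of fitted dissociation to association rate constants, with sensorgrams corrected against a reference flow cell and a buffer blank before fitting.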
Description: (§5) Sensorgrams were generated after in-line reference cell correction followed by buffer sample subtraction. The dissociation equilibrium constant (KD) was calculated based on the ratio of association (kₒₙ₁) and dissociation rated (koff1) constants, obtained by fitting sensorgrams with a bivalent analyte model using Biavaluation Software (version 4.0).

The target in assay [14] is T6, TPP-599 …. Described as above.
Description: as §5
The target of assay [15] is T8, TPP-1778 (PIG-TNFRSF12Aaa28-80-hIgG1-Fc) (pig).
T8 construct: bivalent antigen; also called pig TWEAKR Fc
The assay is described as above.
Description: as §5

Assay [16] has as its target T9, TPP-1846 (MAC-TNFRSF12Aaa28-80-hIgG1-Fc) (macaca fascicularis).
T9 construct: bivalent antigen; also called mac fasc TWEAKR Fc
Described as above.
Description: as §5

The target in assay [17] is T10, TPP-601 (MURINE-TNFRSF12Aaa28-80-hIgG1-Fc) (murine).
T10 construct: dimeric; also called murine TWEAKR Fc
The assay is described as above.
Description: as §5

Assay [18] deals with T11, TPP-1779 (RAT-TNFRSF12Aaa28-80-hIgG1-Fc) (rat).
T11 construct: bivalent antigen; also called rat TWEAKR Fc
The description is as above.
Description: as §5

For assay [19], the target named is T12, TPP-2614 (TweakR-ECD-34-68-hIgGFc-His-D47A) (human).
T12 construct: also called D47A TWEAKR mutein
Description: ELISA, IgG coated 1 ug/ml, TWEAKR variant 250 ng/ml, anti-HIS HRP (FIG. 6C).
Description: Antibodies were coated (1 μg/ml), TWEAKR variant was added at 250 ng/ml, detection via anti-HIS HRP. […] Antibodies were coated (1 μg/ml), TWEAKR variant was added 250 ng/ml, detection via anti-HIS HRP.

Assay [20] has as its target T2, TWEAKR (TNFRSF12A, FN14), human, on …. Description: FACS, NCI-H322 cells, 10 ug/ml.
Description: (§6) To determine the binding characteristics of the anti-TWEAKR antibodies on mouse and human cancer cell lines, binding was tested by flow cytometry to a panel of cell lines. […] Cells were suspended at approximately 10⁵ cells/well in FACS buffer (PBS without Ca/Mg, containing 3% FCS, Biochrom). Cells were centrifuged (250 g, 5 min, 4° C.) and supernatant discarded. Cells were resuspended in dilutions of the antibodies of interest (10 μg/ml in 80 μl if not indicated otherwise) in FACS buffer, and incubated on ice for 1 h. […] After incubation for 1 h on ice cells were again washed with cold FACS buffer, resuspended in 1000 FACS buffer and analyzed by flow cytometry using a FACS-Array (BD Biosciences). Results are calculated as Geo Mean of fluorescence detected by the antibody of interest subtracted by background fluorescence as measured by detection with the secondary antibody alone. Values are scored according to the following system: Geo Mean−Geo Mean of secondary antibody alone >10: +, >100: ++, >1000: +++, 10000: ++++, close to category border in ( ).
Assay [21] has the same target. In words: FACS, 786-O cells, 10 ug/ml.
Description: as §6
The target is the same in assay [22]. Description: FACS, WiDr cells, 10 ug/ml.
Description: as §6
Assay [23] shares this target. Description: FACS, SKOV-3 cells, 10 ug/ml.
Description: as §6
Assay [24] shares this target. Description: FACS, HT29 cells, 10 ug/ml.
Description: as §6
The target is the same in assay [25]. Description: FACS, A375 cells, 10 ug/ml.
Assay [26] has the same target. Description: cell-based or functional assay. This is another data set of the same source.
For assay [27], the target named is TPP-2683 (hTNFRSF12Aaa28-80-R56P-hIgG1-Fc) (human). Description: ELISA, TWEAKR-Fc coated 62 ng/ml, biotin-IgG titrated; + means IC50 1 to 150 pM.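 Also: biotinylated IgG binding to immobilized TWEAKR-Fc muteins, detected with Streptavidin-HRP and Amplex Red, IC50 derived from fitted dose-response curves of twofold serial dilutions.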
Description: as §3, §4

B1: 136.1(TPP-2194) (antibody, mouse IgG2a, kappa, V domains shown)
VH: EVKLEESGGGLVQPGGSMKLSCVASGFTFNNYWMSWVRQSPEKGLEWLAEIRLKSDNYATHYAESVKGKFTISRDDSKSRLYLQMNNLRAENTGIYYCTGGFADYFDYWGQGTTLTVSS
VL: DIVLTQSPASLTVSLGQRATISCRASQSVSTSSYSYMQWYQQRPGQPPKLLIKYATNLDSGVPARFSGSGSGTDFTLNIHPVEEEDAATYYCQHSWEIPYTFGGGTKLEIKR
notes: Murine IgG2a; variable domains from WO2009/020933 with constant region added
For the molecule B1, the binding result in [1], in assay [3], in assay [5], in assay [7], in [8] and in assay [9] was “binds” each time. Further, the binding result in assay [10], in assay [11] and in assay [12] was “binds” throughout. The “IL-8 release from A375 cells at 100 ug/ml, % of the activation by 300 ng/ml TWEAK ligand” value in assay [2] stood at 93%. Besides, the “Fold induction of Caspase 3/7, HT-29 cells, 100 ug/ml” value in [4] is 1.81 fold. This molecule also yielded a Kd in assay [6] of 0.8 nM. The same molecule had a koff in assay [6] of 0.0324 s⁻¹. Besides, the kon in [6] is 3.84e+07 M⁻¹ s⁻¹.

B2: TPP-2077 (antibody, human IgG1, kappa)
heavy: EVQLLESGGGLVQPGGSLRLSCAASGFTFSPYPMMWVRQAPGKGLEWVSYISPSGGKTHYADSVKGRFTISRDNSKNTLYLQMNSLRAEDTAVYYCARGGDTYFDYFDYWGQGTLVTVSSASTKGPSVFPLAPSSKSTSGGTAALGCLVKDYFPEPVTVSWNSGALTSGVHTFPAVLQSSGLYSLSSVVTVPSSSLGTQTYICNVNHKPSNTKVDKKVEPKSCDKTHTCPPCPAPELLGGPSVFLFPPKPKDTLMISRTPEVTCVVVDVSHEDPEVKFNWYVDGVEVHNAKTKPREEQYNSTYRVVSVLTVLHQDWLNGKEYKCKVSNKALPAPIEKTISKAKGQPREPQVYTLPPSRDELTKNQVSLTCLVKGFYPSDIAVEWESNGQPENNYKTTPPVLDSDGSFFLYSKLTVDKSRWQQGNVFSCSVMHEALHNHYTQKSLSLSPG
light: DIQMTQSPATLSASVGDRVTITCRASQSISSYLNWYQQKPGKAPKLLIYAASSLQSGVPSRFSGSGSGTDFTLTISSLQPEDFATYYCQQSYSSPGITFGPGTKVEIKRTVAAPSVFIFPPSDEQLKSGTASVVCLLNNFYPREAKVQWKVDNALQSGNSQESVTEQDSKDSTYSLSSTLTLSKADYEKHKLYACEVTHQGLSSPVTKSFNRGEC
notes: Human IgG1
As to B2, the Kd in [13] worked out at 24.5 nM; in assay [14], 10.3 nM; in [15], 22.4 nM; in assay [16], 16.8 nM; in assay [17], 4.2 nM; in [18], 21.2 nM. The molecule further gave a Kd in [6] of 28.9 nM. Also, the “% binding normalized by wt binding signal” value in assay [19] is less than 5%. This molecule registered a koff in [6] of 0.086 s⁻¹. Further, the kon in [6] was 3e+06 M⁻¹ s⁻¹.

B3: TPP-1538 (antibody, human IgG1, kappa)
heavy: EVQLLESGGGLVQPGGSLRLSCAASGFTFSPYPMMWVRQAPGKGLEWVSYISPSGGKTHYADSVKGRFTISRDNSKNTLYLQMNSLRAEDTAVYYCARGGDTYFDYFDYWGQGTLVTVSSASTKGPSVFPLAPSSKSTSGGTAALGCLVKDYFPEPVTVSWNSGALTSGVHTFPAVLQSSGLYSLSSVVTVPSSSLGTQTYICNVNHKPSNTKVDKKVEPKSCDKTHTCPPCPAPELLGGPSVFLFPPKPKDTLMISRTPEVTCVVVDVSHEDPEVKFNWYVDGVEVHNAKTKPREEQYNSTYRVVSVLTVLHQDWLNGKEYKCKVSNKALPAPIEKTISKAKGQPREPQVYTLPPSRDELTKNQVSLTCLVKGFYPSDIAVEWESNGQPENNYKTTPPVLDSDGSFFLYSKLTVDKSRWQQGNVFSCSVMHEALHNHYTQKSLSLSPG
light: AQDIQMTQSPATLSASVGDRVTITCRASQSISSYLNWYQQKPGKAPKLLIYAASSLQSGVPSRFSGSGSGTDFTLTISSLQPEDFATYYCQQSYSSPGITFGPGTKVEIKRTVAAPSVFIFPPSDEQLKSGTASVVCLLNNFYPREAKVQWKVDNALQSGNSQESVTEQDSKDSTYSLSSTLTLSKADYEKHKLYACEVTHQGLSSPVTKSFNRGEC
notes: Human IgG1
With B3, the “GeoMean of Fluorescence minus GeoMean with the secondary antibody only” value stood at 98 in assay [20]; 17500 in assay [21]; 1190 in [22]; 1630 in assay [23]; 634 in assay [24]; 229 in assay [25]. In addition, the Kd in assay [13] came out at 25 nM; in [14], 15.4 nM; in [15], 22.7 nM; in assay [16], 21.1 nM; in [17], 4.7 nM; in assay [18], 20.4 nM. The same molecule displayed a Kd in assay [6] of 27.6 nM. The “% binding normalized by wt binding signal” value in assay [19] is less than 5%. Further, the “IL-8 release from A375 cells at 100 ug/ml, % of the activation by 300 ng/ml TWEAK ligand” value in assay [2] came to 134%. The “Fold induction of Caspase 3/7, 786-O cells, 100 ug/ml” value in assay [4] came to 1.81 fold. Also, the “Fold induction of Caspase 3/7, HT-29 cells, 100 ug/ml” value in assay [4] came to 2.44 fold. In assay [4], the “Fold induction of Caspase 3/7, NCI-H322 cells, 100 ug/ml” value was 1.49 fold. Also, the “Fold induction of Caspase 3/7, WiDr cells, 100 ug/ml” value in assay [4] stood at 1.53 fold. Further, the “% Inhibition of proliferation, 786-O cells, 96h, 100 ug/ml” value in assay [26] stood at 75%. In assay [26], the “% Inhibition of proliferation, A253 cells, 72h, 100 ug/ml” value is more than 100%. Besides, the “% Inhibition of proliferation, HT-29 cells, 24h, 100 ug/ml” value in [26] came out at 97%. Besides, in assay [26], the “% Inhibition of proliferation, WiDr cells, 96h, 100 ug/ml” value was 55%. In assay [6], this molecule registered a koff of 0.11 s⁻¹. In addition, the kon in assay [6] worked out at 4.2e+06 M⁻¹ s⁻¹.

B4: P3G5(TPP-2195) (antibody, mouse IgG2a, kappa, V domains shown)
VH: QVQLQQSGPEVVRPGVSVKISCKGSGYTFTDYGIHWVKQSHAKSLEWIGVISTYNGYTNYNQKFKGKATMTVDKSSSTAYMELARLTSEDSAIYYCARAYYGNLYYAMDYWGQGTSVTVSS
VL: DIVLTQSPASLAVSLGQRATISCRANKSVSTSSYSYMHWYQQKPGQPPKLLIKYASNLESGVPARFSGSGSGTDFILNIHPVEEEDAATYYCQHSRELPFTFGSGTKLEIKR
notes: Murine IgG2a; variable domains from WO2009/140177 with constant region added
As for B4, the binding result in [1], in [5], in assay [27], in [7], in assay [8] and in assay [9] was “binds” in each case. Moreover, the binding result in assay [10], in [11] and in [12] was “binds” throughout. Besides, in [6], the Kd worked out at 0.5 nM. Moreover, the dissociation rate constant (koff) in assay [6] stood at 0.00122 s⁻¹. In [6], the kon was 2.31e+06 M⁻¹ s⁻¹.
